Laboratory results reported in article PMC1635243.

Molecular target: recombinant T2 domain of xNAP1 (Xenopus nucleosome assembly protein), residues 38-282, histidine tagged (Xenopus laevis)
Test: AUC

stoichiometry N: 12 to 16 subunits
Substance: recombinant T2 domain of xNAP1 (Xenopus nucleosome assembly protein), residues 38-282, histidine tagged (domain or fragment)
